The record followed here is article PMC2115112.

The target of this assay is vimentin (rat (endogenous in glioma C6 cells)) (UniProt P31000). As to the kind of experiment: co-sedimentation.
Sequence of vimentin (rat (endogenous in glioma C6 cells)) (P31000 whole entry): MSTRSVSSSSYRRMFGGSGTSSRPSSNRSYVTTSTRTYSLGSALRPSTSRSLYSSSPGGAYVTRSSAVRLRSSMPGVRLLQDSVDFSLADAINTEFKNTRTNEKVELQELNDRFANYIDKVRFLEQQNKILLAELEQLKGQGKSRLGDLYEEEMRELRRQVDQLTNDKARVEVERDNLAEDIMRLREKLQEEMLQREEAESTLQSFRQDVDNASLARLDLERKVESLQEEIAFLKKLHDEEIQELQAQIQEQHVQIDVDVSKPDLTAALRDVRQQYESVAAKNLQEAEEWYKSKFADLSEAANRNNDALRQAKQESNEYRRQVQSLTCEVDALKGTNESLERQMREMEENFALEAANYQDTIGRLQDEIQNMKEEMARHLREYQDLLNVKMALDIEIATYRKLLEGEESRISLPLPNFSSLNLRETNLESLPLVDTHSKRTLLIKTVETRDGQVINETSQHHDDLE

For the substance plectin (Mr 300,000), P30427 1-4687, the mass ratio of plectin to vimentin in the pelleted aggregates was 0.25, the mass ratio plectin/vimentin in the pellet P1 (round 1) is 0.28, the mass ratio plectin/vimentin in the pellet P2 (round 2) is 0.23 and the percent of the total plectin recovered in the pellet of the mixture was determined as 27%. The percent of the total vimentin recovered in the pellet of the mixture was found to be 32%.
